According to patent publication US20200283521A1:
Like-named read-outs stand apart in the source and are kept apart here.

Experiments:
[1] = molecular target: cynomolgus monkey C-KIT, full length, on CHO-K1 cells (cynomolgus monkey); assay: cell-based or functional assay
[2] = molecular target: human C-KIT, full length, on cells (human) (UniProt P10721); assay: cell-based or functional assay
[3] = molecular target: cynomolgus monkey C-KIT-Fc (cynomolgus monkey); assay: HTRF epitope competition in solution; unlabelled h37M IgG1-3M titrated against terbium-labelled h37M IgG1 on cyno C-KIT-Fc
[4] = molecular target: cynomolgus monkey C-KIT-Fc (cynomolgus monkey); assay: direct ELISA at 1 µg/ml
[5] = molecular target: cynomolgus monkey C-KIT-Fc (cynomolgus monkey); assay: direct titration ELISA on coated C-KIT-Fc, IgG1 format
[6] = molecular target: cynomolgus monkey C-KIT-Fc (cynomolgus monkey); assay: HTRF competition vs Tb-h37M IgG1
[7] = molecular target: cynomolgus monkey C-KIT, full length, on CHO-K1 cells (cynomolgus monkey); assay: flow cytometry, C-KIT-transfected CHO-K1 cells, IgG1 format
[8] = molecular target: cynomolgus monkey C-KIT-Fc (cynomolgus monkey); assay: direct titration ELISA on coated C-KIT-Fc, IgG1 format; remark: listed apart in the source
[9] = molecular target: cynomolgus monkey C-KIT-Fc (cynomolgus monkey); assay: HTRF competition vs Tb-h37M IgG1; remark: listed apart in the source

Row | Cyno C-KIT CHO FabZAP IC50 (pM) [1] | Human C-KIT CHO FabZAP IC50 (pM) [2] | TF-1 FabZAP IC50 (pM) [2] | TF-1 proliferation IC50 [2] | IC50 (read off the curve) [3] | OD450 nm [4] | EC50 (read off the curve) [5] | IC50 [6] | EC50 (read off the curve) [7] | EC50 (read off the curve) [8] | IC50 [9] | Binder
1 | 7.82 pM | 5.7 pM | 12.8 pM | 0.11 nM | 0.02 µg/mL | – | – | – | – | – | – | h37M-IgG1-3M (antibody, V domains shown) VH: QVQLVQSGAEVKKPGASVKLSCKASGYTFTDYYINWVRQAPGKGLEWIARIYPGSGNTYYNEKFKGRATLTADKSTSTAYMQLSSLRSEDTAVYFCARGVYYFDYWGQGTTVTVSS VL: DIVMTQSPSSLSASVGDRVTITCKASQNVRTNVAWYQQKPGKAPKALIYSASYRYSGVPDRFTGSGSGTDFTLTISSLQPEDFADYFCQQYNSYPRTFGGGTKVEIK
2 | – | – | – | – | – | > 2 OD450 nm | 0.2 µg/mL | 0.035 µg/mL | 0.2 µg/mL | 0.1 µg/mL | 0.036 µg/mL | humanized h37M, human IgG1 (antibody, V domains shown) VH: QVQLVQSGAEVKKPGASVKLSCKASGYTFTDYYINWVRQAPGKGLEWIARIYPGSGNTYYNEKFKGRATLTADKSTSTAYMQLSSLRSEDTAVYFCARGVYYFDYWGQGTTVTVSS VL: DIVMTQSPSSLSASVGDRVTITCKASQNVRTNVAWYQQKPGKAPKALIYSASYRYSGVPDRFTGSGSGTDFTLTISSLQPEDFADYFCQQYNSYPRTFGGGTKVEIK
